Source: publication PMC4195821 (The Journal of Cell Biology, 2014)

T1: GST-Bem1p (yeast, UniProt P29366 1-551)
T1 sequence (looked up): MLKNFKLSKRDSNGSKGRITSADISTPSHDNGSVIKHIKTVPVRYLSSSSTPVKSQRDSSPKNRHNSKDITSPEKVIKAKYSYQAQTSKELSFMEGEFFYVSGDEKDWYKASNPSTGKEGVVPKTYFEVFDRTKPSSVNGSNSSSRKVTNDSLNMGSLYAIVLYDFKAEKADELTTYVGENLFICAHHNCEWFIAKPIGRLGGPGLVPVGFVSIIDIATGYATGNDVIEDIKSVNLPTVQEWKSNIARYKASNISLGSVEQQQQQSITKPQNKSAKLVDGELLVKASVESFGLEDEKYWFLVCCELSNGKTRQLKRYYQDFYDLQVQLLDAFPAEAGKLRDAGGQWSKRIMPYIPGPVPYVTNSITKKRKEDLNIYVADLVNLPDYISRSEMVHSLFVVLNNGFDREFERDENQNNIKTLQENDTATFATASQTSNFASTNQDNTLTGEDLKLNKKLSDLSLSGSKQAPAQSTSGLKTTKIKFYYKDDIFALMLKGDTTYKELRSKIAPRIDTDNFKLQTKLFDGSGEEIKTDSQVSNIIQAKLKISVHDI

B1: His6-MBP-Cdc24^781-854p (domain or fragment, yeast, UniProt P11433 781-854, looked up)
chain: FTLLVEKVWNFDDLIMAINSKISNTHNNNISPITKIKYQDEDGDFVVLGSDEDWNVAKEMLAENNEKFLNIRLY
B2: Bem1p-His6 (natural protein, yeast, UniProt P29366 1-551, looked up)
chain: T1 sequence (looked up)

How the values were obtained:
GST-Bem1p = molecular target: T1, GST-Bem1p; experiment: pull-down
GST-Exo70p = GST-Exo70p (yeast, UniProt P19658 1-623); experiment: pull-down
Chain of GST-Exo70p (P19658 whole entry): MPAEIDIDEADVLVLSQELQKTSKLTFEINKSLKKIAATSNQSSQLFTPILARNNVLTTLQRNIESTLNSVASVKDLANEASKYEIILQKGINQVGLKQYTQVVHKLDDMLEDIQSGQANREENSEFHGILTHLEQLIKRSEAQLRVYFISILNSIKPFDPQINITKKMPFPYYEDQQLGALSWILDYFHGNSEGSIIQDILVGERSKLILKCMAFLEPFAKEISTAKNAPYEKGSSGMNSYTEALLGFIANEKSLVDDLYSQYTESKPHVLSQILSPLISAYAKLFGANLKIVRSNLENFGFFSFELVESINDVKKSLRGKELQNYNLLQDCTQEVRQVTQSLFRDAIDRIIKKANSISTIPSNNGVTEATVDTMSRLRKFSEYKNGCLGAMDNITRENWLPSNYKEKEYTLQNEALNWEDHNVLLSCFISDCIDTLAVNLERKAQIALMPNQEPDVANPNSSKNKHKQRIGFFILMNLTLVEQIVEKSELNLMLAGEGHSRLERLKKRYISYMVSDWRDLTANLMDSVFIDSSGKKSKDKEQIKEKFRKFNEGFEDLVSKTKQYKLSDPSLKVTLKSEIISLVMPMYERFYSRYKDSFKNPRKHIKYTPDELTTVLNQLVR

Binder | binding result (GST-Bem1p) | Kd (GST-Exo70p) [nM]
B1 | binds | –
B2 | – | ~260
